{"source": "patent US8124835B2", "about": "“Acyl-coa-dependent diacylglycerol acyltransferas 1 (DGAT1) gene from Tropaeolum majus, protein encoded thereby and uses thereof” (National Research Council of Canada, priority 2006, dated 2012)", "tested_on": "DGAT activity", "assay": "DGAT activity of site-directed mutagenized (SDM) TmDGAT1s expressed in yeast quadruple mutant H1246 MATα", "format": "biochemical, Tropaeolum majus", "from_the_text": "FIG. 13. Expression of site-directed mutagenized (SDM) TmDGAT1 cDNAs in yeast quadruple mutant H1246 MATα. (A) The nasturtium DGAT1 cDNAs in pYES2/NT plasmid were transformed into a yeast DGAT mutant strain: H1246 MATα. The specific SDM changes were: F2R=Phe^439 to Arg (SEQ. ID. NO: 4, refer to SEQ. ID. NO: 10 for the nucleotide sequence); P2R=Pro^216 to Arg (SEQ. ID. NO: 5, refer to SEQ. ID. NO: 11 for the nucleotide sequence); Y2G_W2G=Tyr^392 to Gly+Trp^395 to Gly (SEQ. ID. NO: 9, refer to SEQ. ID. NO: 15 for the nucleotide sequence); Y2A=Tyr^392 to Ala (SEQ. ID. NO: 8, refer to SEQ. ID. NO: 14 for the nucleotide sequence); S2A=Ser^197 to Ala (SEQ. ID. NO: 6, refer to SEQ. ID. NO: 12 for the nucleotide sequence) and E2V=E^145 to Val (SEQ. ID. NO: 7, refer to SEQ. ID. NO: 13 for the nucleotide sequence). Yeast cells transformed with pYES2/NT plasmid only was used as a control. The mutant, transformed with the native TmDGAT1, was used as a positive DGAT control. Following the induction in the presence of galactose, the transformants were lysed and assayed for DGAT activity. (B) Western blot of the SDM TmDGATs using an Anti-Xpress antibody. Following a 7 h lyse, a 15,000×g protein pellet isolated and proteins separated by SDS-PAGE.\nFIG. 14. SDM TmDGATs (SnRK1 and Tyr-P sites) activity utilizing ^14C labeled erucoyl-CoA or oleoyl-CoA+sn-1,2-diolein or dierucin. SDM TmDGATs were transformed into yeast DGAT mutant, H1246 MATα, following induction by galactose the yeast were assayed for DGAT activity. Activity is expressed as a percent of native TmDGAT, with native TmDGAT activity set at 100%.\nThe TmDGAT1 ORF (SEQ. ID. NO: 2) in pYES2.1/V5-His-TOPO plasmid was transformed into a quadruple yeast mutant H1246MATα (Sandager et al, 2002) using the S.c. EasyComp™ transformation Kit (Invitrogen). Yeast cells transformed with pYES2.1/V5-His-TOPO plasmid only were used as a control. Transformants were selected by growth on synthetic complete medium lacking uracil (SC-ura), supplemented with 2% (w/v) glucose. The colonies were transferred into liquid SC-ura with 2% (w/v) glucose and grown at 28° C. overnight. The overnight cultures were diluted to an OD of 0.4 in induction medium (SC-ura+2% Galactose+1% Raffinose), and were induced for 24-36 hours at 28° C. Cells were collected and broken using glass beads. The crude protein concentration in the lysates was normalized using the Biorad assay based on the method of (Bradford, 1976) and assayed for DGAT activity. DGAT assays were conducted at pH 7.4, with shaking at 100 rev/min in a water bath at 30° C. for 60 min. Assay mixtures (0.5 ml final volume) contained 500 μg lysate protein normalized as described above, 90 mM HEPES-NaOH, 200 μM sn-1,2 diolein or sn-1,2 dierucin (pre-purified by TLC on 10% borate silica H plates) in 0.02% Tween-20, and 18 μM 1-^14C acyl-CoA (specific activity 2 nCi/nmol) as the acyl donor. The ^14C-labelled TAGs were isolated and counted as described above for insect cell expression.\nTo introduce point mutations into the Tropaeolum majus DGAT1 coding region, we used a QuikChange™ site-directed mutagenesis kit (Stratagene). Primers were complementary to opposite strands of pYES2.1/V5-His TOPO yeast expression vector (Invitrogen) containing the TmDGAT1 gene. During the PCR, primers were extended with PfuTurbo DNA polymerase. This polymerase replicated both strands with high fidelity and without displacing the mutated oligonucleotide primers. The cycling parameters used for site-directed mutagenesis were as follows: initial denaturation at 95° C. for 30 s, followed by 15 cycles at 95° C. for 30 s, 55° C. for 1 min, and 68° C. for 15 min, with termination at 68° C. for 15 min. Following the PCR reaction, the product was treated with DpnI endonuclease (target sequence: 5′-Gm6ATC-3′) which is specific for methylated and hemimethylated DNA, used to digest the parental DNA template and to select for the mutated DNA.", "key": {"[1]": {"conditions": "recombinant SDM protein from yeast H1246MATα"}}, "note": "Entries after “also recorded” stand apart in the source; their conditions may differ."}
{"molecule": "P216R (protein) MAVAESSQNTTTMSGHGDSDLNNFRRRKPSSSVIEPSSSGFTSTNGVPATGHVAENRDQDRVGAMENATGSVNLIGNGGGVVIGNEEKQVGETDIRFTYRPSFPAHRRVRESPLSSDAIFKQSHAGLFNLCIVVLIAVNSRLIIENLMKYGWLIDTGFWFSSRSLGDWSIFMCCLTLPIFPLAAFIVEKLVQRNHISELVAVLLHVIVSTAAVLYRVIVILTCDSVYMSGVVLMLFGCIMWLKLVSYAHTSSDIRTLAKSGYKGDAHPNSTIVSCSYDVSLKSLAYFMVAPTLCYQPSYPRSSCIRKGWVVRQFVKLIVFIGLMGFIIEQYINPIVRNSKHPLKGDFLYAIERVLKLSVPNLYVWLCMFYSFFHLWLNILAELLRFGDREFYKDWWNAKTVAEYWKMWNMPVHRWMVRHLYFPCLRNGIPKEGAIIIAFLVSGAFHELCIAVPCHVFKLWAFIGIMFQVPLVLITNYLQEKFSNSMVGNMIFWFIFCILGQPMCVLLYYHDLINLKEK", "values": [{"measurement": "DGAT1 activity compared to recombinant WT TmDGAT1 (in words)", "setting": "recombinant SDM protein from yeast H1246MATα, listed as Proline^216 (changed to an Arg)", "result": "total loss of DGAT activity; also recorded: abolished"}, {"measurement": "DGAT1 activity compared to recombinant WT TmDGAT1 (in words)", "setting": "recombinant SDM protein from yeast H1246MATα, listed as Proline^216 with Arginine", "result": "total loss of DGAT1 activity"}]}
{"molecule": "E145V: SDM TmDGAT1, Glu145 to Val in the catalytic site (SEQ ID NO: 7) (protein, listed as Tropaeolum majus) MAVAESSQNTTTMSGHGDSDLNNFRRRKPSSSVIEPSSSGFTSTNGVPATGHVAENRDQDRVGAMENATGSVNLIGNGGGVVIGNEEKQVGETDIRFTYRPSFPAHRRVRESPLSSDAIFKQSHAGLFNLCIVVLIAVNSRLIIVNLMKYGWLIDTGFWFSSRSLGDWSIFMCCLTLPIFPLAAFIVEKLVQRNHISELVAVLLHVIVSTAAVLYPVIVILTCDSVYMSGVVLMLFGCIMWLKLVSYAHTSSDIRTLAKSGYKGDAHPNSTIVSCSYDVSLKSLAYFMVAPTLCYQPSYPRSSCIRKGWVVRQFVKLIVFIGLMGFIIEQYINPIVRNSKHPLKGDFLYAIERVLKLSVPNLYVWLCMFYSFFHLWLNILAELLRFGDREFYKDWWNAKTVAEYWKMWNMPVHRWMVRHLYFPCLRNGIPKEGAIIIAFLVSGAFHELCIAVPCHVFKLWAFIGIMFQVPLVLITNYLQEKFSNSMVGNMIFWFIFCILGQPMCVLLYYHDLINLKEK", "values": [{"measurement": "decrease in DGAT1 activity compared to wild type TmDGAT1", "setting": "[1]", "result": 43, "unit": "%"}]}
{"molecule": "Y392A (protein) MAVAESSQNTTTMSGHGDSDLNNFRRRKPSSSVIEPSSSGFTSTNGVPATGHVAENRDQDRVGAMENATGSVNLIGNGGGVVIGNEEKQVGETDIRFTYRPSFPAHRRVRESPLSSDAIFKQSHAGLFNLCIVVLIAVNSRLIIENLMKYGWLIDTGFWFSSRSLGDWSIFMCCLTLPIFPLAAFIVEKLVQRNHISELVAVLLHVIVSTAAVLYPVIVILTCDSVYMSGVVLMLFGCIMWLKLVSYAHTSSDIRTLAKSGYKGDAHPNSTIVSCSYDVSLKSLAYFMVAPTLCYQPSYPRSSCIRKGWVVRQFVKLIVFIGLMGFIIEQYINPIVRNSKHPLKGDFLYAIERVLKLSVPNLYVWLCMFYSFFHLWLNILAELLRFGDREFAKDWWNAKTVAEYWKMWNMPVHRWMVRHLYFPCLRNGIPKEGAIIIAFLVSGAFHELCIAVPCHVFKLWAFIGIMFQVPLVLITNYLQEKFSNSMVGNMIFWFIFCILGQPMCVLLYYHDLINLKEK", "values": [{"measurement": "decrease in DGAT1 activity compared to wild type TmDGAT1", "setting": "[1]", "result": 80, "unit": "%"}]}
{"molecule": "Y392G + W395G (protein) MAVAESSQNTTTMSGHGDSDLNNFRRRKPSSSVIEPSSSGFTSTNGVPATGHVAENRDQDRVGAMENATGSVNLIGNGGGVVIGNEEKQVGETDIRFTYRPSFPAHRRVRESPLSSDAIFKQSHAGLFNLCIVVLIAVNSRLIIENLMKYGWLIDTGFWFSSRSLGDWSIFMCCLTLPIFPLAAFIVEKLVQRNHISELVAVLLHVIVSTAAVLYPVIVILTCDSVYMSGVVLMLFGCIMWLKLVSYAHTSSDIRTLAKSGYKGDAHPNSTIVSCSYDVSLKSLAYFMVAPTLCYQPSYPRSSCIRKGWVVRQFVKLIVFIGLMGFIIEQYINPIVRNSKHPLKGDFLYAIERVLKLSVPNLYVWLCMFYSFFHLWLNILAELLRFGDREFGKDGWNAKTVAEYWKMWNMPVHRWMVRHLYFPCLRNGIPKEGAIIIAFLVSGAFHELCIAVPCHVFKLWAFIGIMFQVPLVLITNYLQEKFSNSMVGNMIFWFIFCILGQPMCVLLYYHDLINLKEK", "values": [{"measurement": "DGAT1 activity compared to recombinant WT TmDGAT1 (in words)", "setting": "[1]", "result": "total loss of activity"}]}
{"molecule": "S197A: SDM TmDGAT1, Ser197 to Ala in putative SnRK1 phosphorylation motif (SEQ ID NO: 6) (protein, listed as Tropaeolum majus) MAVAESSQNTTTMSGHGDSDLNNFRRRKPSSSVIEPSSSGFTSTNGVPATGHVAENRDQDRVGAMENATGSVNLIGNGGGVVIGNEEKQVGETDIRFTYRPSFPAHRRVRESPLSSDAIFKQSHAGLFNLCIVVLIAVNSRLIIENLMKYGWLIDTGFWFSSRSLGDWSIFMCCLTLPIFPLAAFIVEKLVQRNHIAELVAVLLHVIVSTAAVLYPVIVILTCDSVYMSGVVLMLFGCIMWLKLVSYAHTSSDIRTLAKSGYKGDAHPNSTIVSCSYDVSLKSLAYFMVAPTLCYQPSYPRSSCIRKGWVVRQFVKLIVFIGLMGFIIEQYINPIVRNSKHPLKGDFLYAIERVLKLSVPNLYVWLCMFYSFFHLWLNILAELLRFGDREFYKDWWNAKTVAEYWKMWNMPVHRWMVRHLYFPCLRNGIPKEGAIIIAFLVSGAFHELCIAVPCHVFKLWAFIGIMFQVPLVLITNYLQEKFSNSMVGNMIFWFIFCILGQPMCVLLYYHDLINLKEK", "values": [{"measurement": "increase in trierucin production compared to the native DGAT1", "setting": "erucoyl-CoA:sn-1,2-dierucin pairing of substrates", "result": "~40", "unit": "%"}, {"measurement": "increase in DGAT1 activity compared to wild type TmDGAT1", "setting": "[1]", "result": "up to 125%"}]}
